B1: 1.6.1M-Pa proBiTE (bispecific antibody)
heavy: QDGNEEMGGGSQDGNEEMGGIGGGSGGGGSGLSGRSDNHGGGGSEVQLVESGGGLVQPGGSLRLSCAASGFTFNTYAMNWVRQAPGKGLEWVARIRSKYNNYATYYADSVKGRFTISRDDSKNTLYLQMNSLRAEDTAVYYCARHGNFGSSYVSYFAYWGQGTTVTVSSASTKGPSVFPLAPSSKSTSGGTAALGCLVKDYFPEPVTVSWNSGALTSGVHTFPAVLQSSGLYSLSSVVTVPSSSLGTQTYICNVNHKPSNTKVDKKVEPKSCPPCPAPEAAGAPSVFLFPPKPKDTLMISRTPEVTCVVVDVSHEDPEVKFNWYVDGVEVHNAKTKPREEQYNSTYRVVSVLTVLHQDWLNGKEYKCKVSNKALPAPIEKTISKAKGQPREPQVYTLPPSRDELTKNQVSLLCLVKGFYPSDIAVEWESNGQPENNYKTTPPVLDSDGSFFLHSKLTVDKSRWQQGNVFSCSVMHEALHNHYTQKSLSLSPGK
light: QVQLQESGPGLVKPSETLSLTCTVSGGSVSSGDYYWTWIRQSPGKGLEWIGHIYYSGNTNYNPSLKSRLTISIDTSKTQFSLKLSSVTAADTAIYYCVRDRVTGAFDIWGQGTMVTVSSGGGGSGGGGSGGGGSGGGGSDIQMTQSPSSLSASVGDRVTITCQASQDISNYLNWYQQKPGKAPKLLIYDASNLETGVPSRFSGSGSGTDFTFTISSLQPEDIATYFCQHFDHLPLAFGGGTKVEIKGGGGSGGGGSGGGGSGGGGSEIVVTQSPATLSVSPGERATLSCRSSTGAVTTSNYANWVQQKPGQAPRGLIGGANKRAPGVPARFSGSLSGDEATLTISSLQSEDFAVYYCALWYSNLWVFGQGTKLEIKRTVAAPSVFIFPPSDEQLKSGTASVVCLLNNFYPREAKVQWKVDNALQSGNSQESVTEQDSKDSTYSLSSTLTLSKADYEKHKVYACEVTHQGLSSPVTKSFNRGECPPCPAPEAAGAPSVFLFPPKPKDTLMISRTPEVTCVVVDVSHEDPEVKFNWYVDGVEVHNAKTKPREEQYNSTYRVVSVLTVLHQDWLNGKEYKCKVSNKALPAPIEKTISKAKGQPREPQVYTLPPSRDELTKNQVSLLCLVKGFYPSDIAVEWESNGQPENNYKTTPPVLDSDGSFFLHSKLTVDKSRWQQGNVFSCSVMHEALHNHYTQKSLSLSPGK
notes: Intact, not treated with uPA; As 1.6.1M proBiTE but with a panitumumab anti-EGFR scFv in the light chain
B2: 1.6.1M-2-1-Pa proBiTE (bispecific antibody)
heavy: QDGNEEMGGGSQDGNEEMGGIGGGSGGGGSGLSGRSDNHGGLSGRSDNHGGSEVQLVESGGGLVQPGGSLRLSCAASGFTFNTYAMNWVRQAPGKGLEWVARIRSKYNNYATYYADSVKGRFTISRDDSKNTLYLQMNSLRAEDTAVYYCARHGNFGSSYVSYFAYWGQGTTVTVSSASTKGPSVFPLAPSSKSTSGGTAALGCLVKDYFPEPVTVSWNSGALTSGVHTFPAVLQSSGLYSLSSVVTVPSSSLGTQTYICNVNHKPSNTKVDKKVEPKSCPPCPAPEAAGAPSVFLFPPKPKDTLMISRTPEVTCVVVDVSHEDPEVKFNWYVDGVEVHNAKTKPREEQYNSTYRVVSVLTVLHQDWLNGKEYKCKVSNKALPAPIEKTISKAKGQPREPQVYTLPPSRDELTKNQVSLLCLVKGFYPSDIAVEWESNGQPENNYKTTPPVLDSDGSFFLHSKLTVDKSRWQQGNVFSCSVMHEALHNHYTQKSLSLSPGK
light: B1 light
notes: Intact, not treated with uPA

Biological target: T1, Recombinant human EGFR (human, UniProt P00533 25-645)
T1 construct: Bought protein coated on ELISA plates (100 ng per well); also called human antigen EGFR
Test: ELISA on coated human EGFR, antibody not treated with uPA
Description: To determine the binding affinity of proBiTEs to CD3 and EGFR, ELISA was performed according to standard protocols. Briefly, human antigen CD3 and EGFR were coated on Corning EIA/RIA high-binding 96-well plates (Corning Inc.) at 100 ng per well overnight at 4° C. and blocked with 3% nonfat milk in PBS (pH7.4). For cleavage with urokinase (uPA), 30 μg antibodies were mixed with or without 0.3 μg recombinant human uPA (50 μg/mL) (Sino Biological) in PBS (pH7.4) and incubated at room temperature for 4 hour. Then the mixture with or without uPA was diluted in a fivefold gradient and incubated at room temperature for 2 h. The plates were washed with PBS containing 1% nonfat milk. Bound antibodies were detected by HRP-conjugated streptavidin (Sigma). The assay was developed at room temperature with TMB substrate (Solarbio) and monitored at 450 nm with a microplate reader. The half-maximal binding (EC₅₀) was calculated by fitting the data to the Langmuir adsorption isotherm.

Row | Binder | binding result
1 | B1 | binds
2 | B2 | binds

From patent US20250361299A1 (ZHEJIANG SHIMAI PHARMACEUTICAL, published 2025)
